Laboratory results reported in the supplement of paper PMC9170038.

system: K4 kissing-loop RNA reporter; assay: apparent KD of K4 kissing-loop reporter; higher = weaker reporter binding; settings: Eterna round: R107; input ligand: arginine 13.2 mM
Description: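 RNA-MaP round R107: designed RNA switches with theophylline, tryptophan, arginine or FMN aptamers are transcribed on-chip within common flanks. They are titrated with a labelled K4 kissing-loop RNA reporter in RNA-MaP buffer (100 mM Tris pH 7.5, 80 mM KCl, 4 mM MgCl2), without ligand or with the indicated ligand. Median apparent KD per design.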
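Note: bound reporter read as fluorescence of individual clusters on recovered sequencing chips by microscopy, with normalized cluster intensities fitted with a binding model.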

| Sequence | apparent KD of K4 kissing-loop reporter |
| --- | --- |
| UGAACCCGGUCGGCCGCCACUCUGAGAACCAUCGCCCUACGUGCAGUGAUGUUGUACCUAAUGAGGAGGACCGGGACUGGGCGGC [theeternabot_sameState_KL_Trp_B_36] | 277 nM |
| AGUCUGUAUGACAUAAGUGAUGUUUAUGUUCGAGGACCGGUACGGCCGCCACUCGCAAAUGUAUGAUUUCACGUUUGUGCAAGUA [KL-XTryp-A #analogue] | 183 nM |
| AAUGAUGAUUGACACAUUUACUAAAAGGAAGGAGCGGCGAAGUAGCCAGGUAGGUCGCCUUAUAGCAGUGAUGUUGCUAUUUGUU [JR_Nu_ExcArginiA_Sub027] | 106 nM |
| AGUGUACAGUCGGCCGCCACUCACUCCUCCUGCGUUAACGAGUGAUGUUUGUUUUUUAGUGGUACGAGGACCGGGACUUCUCUGA [theeternabot_sameState_KL_Trp_B_35] | 118 nM |
| AAACAUCACUGGGAGUGAUGUUCUCAGUGACGAGGACCGGUACGGCCGCCACUCGCGAGAGAUAUAGAUGAGUAAUGACAUCAUU [Excl Tryptophan A V3] | 232 nM |
| AGUGAUGUUGUGUUAUGUUUGGGAAGUGAUCGAGGACCGGUACGGCCGCCACUCGAGUGAUGAGUGAGUGAUGUUUGUUUAGGGA [whbob_SS_Tryp_A_m9] | 698 nM |
| GGAUCCACCAGUGAUGUUGGAGAAAACUUCAAGGAUAUGACGAAAGUCAGAAGGUGGUAGACUGGGCAAAGUCCGGUCGGAUCCA [FmnA10 U29+G66] | 228 nM |
| UUUUAAAUAUCUGAUACCAGAGAAAAUAUAUGUAGUGAUGUUAUAUACAAAAUAAAUAAGCUCCCUUGGCAGCAGUAUUAAUUUU [AstrosExyTheB#1] | 622 nM |
| GGUAGCAUCGCGGCCGCCACUAAUCGCUAAGGCUCAGGACCCUAAUAGCGAGUGAUGUUCGCCCUUAGGACCGGGCGAUGCUACC | 93.3 nM |
| UGAUACCAGACUGAUACCAGCCAGUGAUGUUGGCAAUAUCCAAGGUGAGUCAAAGACUCGGGCCCUUGGCAGCAGUCUGGUAUCU [TheoBX 7 #SwitchBubble #StaticStem] | 139 nM |
| GAUUUAGAGGCGGCCGCCACUAGUGAUGUUAGUGAUGUUUGAUACUGUAUAUAUCGGCGUGUAGAUAGGACCGGGCCAGAUGGAG [tbqqmullin] | 157 nM |
| GCAGUGAUGUUGCGGAUGUACAGUGGAGUGCGAGGACCGGUACGGCCGCCACUCGUACAGAACAAGCUAAUAUAUCGAUAGGUGA [X] | 242 nM |
| UAAUGUGGCACAGGAUAUACUGAUUGGAGUGAUGUUCCAAACAUGGACGUGAGACUUUUACAAGAAGUAGAAGGGUGUUAGAUAU [Exclusion FMN B GF 20] | 298 nM |
| AGGCACGAGCAAGGAUAUCGAGUAGAGUGAUGUUCUGCCUGGGUUGGCCCGAAAGGGCCUUCCCAGCGAGAAGGUGCUCGUGCCU [#2 Same State - FMN A Attempt #9 (HarryS)] | 588 nM |
| GGAUCCACCAGUGAUGUUGGAGAAAACUCCAAGGAUAUGACGAAAGUCAGAAGGUGGUAGACUGGUCAAAGUCCGGUCGGAUCCA [FmnA10 U66] | 77.4 nM |
| UAUUUAAAUAAAAUAAAAUAAAUUGCUGAUACCAGAGCCAAUUGGCUCCCUUGGCAGCGGAUCGAGUGAUGUUCGUAAAAUUUAU [AK2 SS Theophylline A] | 65.4 nM |
| GCCUGUGCGCGAAGGAGCGCCGUGACAGGUUACUGCCUUGGGCAGUGAUGUUGCUCAAUCUGGCAGGUAGGUCGCGUGCACAGGC | 187 nM |
| AGCAUUUUCAGAAGGAGCGUGAAUUAUUCAUAAUUAUAUUAUACGAGUGAUGUUCGUAUUUCACAGGUAGGUCGCUGAUAUAGCA [JR_SSArginiB_Sub002] | 78.3 nM |
| AGUUUAGAGUGACUCGAUAAGAGUCACAAACGAGGACCGGUACGGCCGCCACUCGAAAUAACGAGAGUGAUGUUCUCGCUGGGCA [FiskerMod 3 - Jieux - Same State Tryptophan A] | 377 nM |
| UUGGAGUGAUGUUCCAUAUCUUGAGCCGAAGGAGCGGCAUUAUUGCCAGGUAGGUCGCGGCAGAAGGUACCAGUGAUGUUGGAAA [Same State Arginine A GF 4] | 138 nM |
| AAUGUACAAGUGAUGUUUGUACUUUCCGAAGGAGCGUCUAAUAAGACAGGUAGGUCGCGGAUUCUCUUAAUUAUCAGGUCAUUAA [JR_ExcArginiA_Sub017] | 81.3 nM |
| AGUGAUGUAUGGCGGUGUGUCGCUUAAAAUCAGGAUAUAUAAACAAAUAGAAGGGAUGGCGGAGUGAUGUUCCGCCGGCCGCCAU [FMN A Exl V2] | 118 nM |
| UAAUUUAUGUCUUUAAUAUAAUUUUCAGAUACCAGUGAUUAUUAACACCCUUGGCAGCUGUGUAGAGUGAUGUUCUCAUGCUUAA [#07 K4 Theophylline A Exclusion] | 354 nM |
| GGAUAGGAUAGAGGAUAUGGCUUACGCAGAAAUAACUUAUUGUGUAAAUCCAUAGGGAGUGAUGUUCCAGAAGGCUGUCCUAUCG [MatMod 17 - Jieux - Exclusion - FMN B] | 212 nM |
| UUUUAAUGCAGUGAUGUUGCUAAUAAAACAGAGGAUAUGCAUGGAAGCAGAAGGCUGAUAUAUUAUACUUUAAUAUAUUAUAUUU [JR_SSFMNA_Sub011] | 147 nM |
| CGUUUAUAGGAGGAUACCAGUACGGAUAAAGUACGUUAAUAGUAGAGUGAUGUUCUAAAGUACCCUUGGCAGCUUAGAGUGAGUG [ExTheophylB.N] | 104 nM |
| GAUGAAUGCGGAAGGAGCGAGUUUUUGGGAGUGAUGUUCCCUGCAUAUGCACGUGGGAAAGCUCAGGUAGGUCGCCGCGCUUGUU [Same State Arginine B GF 28] | 244 nM |
| UUGGCUGGACGGGAUACCAGCCAAAUCGUGUGCUUAGGAUGUCUAAGAGCCAGUGAUGUUGGCCCUUGGCAGCCCUCCUAGCUUG [Ordigear] | 115 nM |

same assay, conditions: Eterna round: R107; input ligand: none

| Sequence | apparent KD of K4 kissing-loop reporter |
| --- | --- |
| AUGGUUGUCGUAGGAUAUGUAGGAUAUUCUAAAAUAUGAAGUGAUGUUUCUAUAAUAAGAAGAAGGACAGAAGGACGAUAACCAC [FmnBS 1 - SaraBot transfer #DoubleAptamer] | 114 nM |
| AGCUAGUACGCAGGAUAUUGAACAUCAUUUAGUGAGAUCGAGUGAUGUUCGAUCACGACUUCAGUUCGAGAAGGGCGUACUAGCA [#02 K4 FMN B Same State] | 931 nM |
| AGUGAUGUGGGAAGGAGCGCUAUAAGACUUCAGUGAUGUUGAAGUGCUGGUUUAGUGUUGUAGCAGGUAGGUCGCCUAGAUGUUA [KL-XARG-B11] | 275 nM |
| UUCCUAUUAUUAACACUAUAUACAACUGAAGGAGCGACAAUAAAGUCAGGUAGGUCGCAGAAUUAAUGAGUGAUGUUCAUUUUUA [JR_ExcArginiA_Sub013] | 96.6 nM |
| GGAUGGUAGGCGGCCGCCACUAAAACUGAACAAAUAUAAACCAGUGAUGUUGGUAUGAUGAAGUAUAGGACCGGGCCUAGAUAGA [Exclusion - Tryptophan B (Freestyle 1)] | 143 nM |
| GGGAGGAAAAUUUUCCUCAAAAGUUGGCUACAGGAUAUCGUGGGAAUGAGAAGGGUAACCGAGACGCCCAGUGAUGUUGGGUGCC [Antegete] | 318 nM |
| AAGCAGUCUCUUGUAGUCAUCGAAGAUGAACGAGGACCGGUACGGCCGCCACUCGGAGUGAUGUUCCGAAGGCUGCAAAAUAAAA [MatMod 18 - Jieux - Exclusion - Tryptophan A] | 309 nM |
| AAUUAAUACAGAAGGAGCGUGUUUUUUAAUUUAUUUUCAUGAUCGAGUGAUGUUCGAUAUACACAGGUAGGUCGCUGUAUAUUUA [JR_SSArginiB_Sub008] | 113 nM |
| AUUUGUUUAUGUGAUACCAGACUUUGCAGUGAUGUUGCUUUUAUUUUUGAAUUUUAAAUAGUCCCUUGGCAGCACUAUGUAUUUA [JR_SSTheophyB_Sub009] | 82.8 nM |
| GGUGCUGUCUGUGCCGCCCUCCUCGUCCCUCGAGGACCGGUACGGCCGCCACUCGAGUGAUGUUCGGGUAGCCCUCCCUGCCAGC [BDazzled - #21 Exc. Tryptophan A] | 548 nM |
| UGAACCCGGUCGGCCGCCACUCUGAGAACCAUCGCCCUACGUGCAGUGAUGUUGUACCUAAUGAGGAGGACCGGGACUGGGCGGC [theeternabot_sameState_KL_Trp_B_36] | 360 nM |
| AGUCUGUAUGACAUAAGUGAUGUUUAUGUUCGAGGACCGGUACGGCCGCCACUCGCAAAUGUAUGAUUUCACGUUUGUGCAAGUA [KL-XTryp-A #analogue] | 207 nM |
| AAUGAUGAUUGACACAUUUACUAAAAGGAAGGAGCGGCGAAGUAGCCAGGUAGGUCGCCUUAUAGCAGUGAUGUUGCUAUUUGUU [JR_Nu_ExcArginiA_Sub027] | 83.1 nM |
| AGUGUACAGUCGGCCGCCACUCACUCCUCCUGCGUUAACGAGUGAUGUUUGUUUUUUAGUGGUACGAGGACCGGGACUUCUCUGA [theeternabot_sameState_KL_Trp_B_35] | 275 nM |
| AAACAUCACUGGGAGUGAUGUUCUCAGUGACGAGGACCGGUACGGCCGCCACUCGCGAGAGAUAUAGAUGAGUAAUGACAUCAUU [Excl Tryptophan A V3] | 286 nM |
| AGUGAUGUUGUGUUAUGUUUGGGAAGUGAUCGAGGACCGGUACGGCCGCCACUCGAGUGAUGAGUGAGUGAUGUUUGUUUAGGGA [whbob_SS_Tryp_A_m9] | 962 nM |
| GGAUCCACCAGUGAUGUUGGAGAAAACUUCAAGGAUAUGACGAAAGUCAGAAGGUGGUAGACUGGGCAAAGUCCGGUCGGAUCCA [FmnA10 U29+G66] | 296 nM |
| UUUUAAAUAUCUGAUACCAGAGAAAAUAUAUGUAGUGAUGUUAUAUACAAAAUAAAUAAGCUCCCUUGGCAGCAGUAUUAAUUUU [AstrosExyTheB#1] | 808 nM |
| GGUAGCAUCGCGGCCGCCACUAAUCGCUAAGGCUCAGGACCCUAAUAGCGAGUGAUGUUCGCCCUUAGGACCGGGCGAUGCUACC | 101 nM |
| UGAUACCAGACUGAUACCAGCCAGUGAUGUUGGCAAUAUCCAAGGUGAGUCAAAGACUCGGGCCCUUGGCAGCAGUCUGGUAUCU [TheoBX 7 #SwitchBubble #StaticStem] | 148 nM |
| GAUUUAGAGGCGGCCGCCACUAGUGAUGUUAGUGAUGUUUGAUACUGUAUAUAUCGGCGUGUAGAUAGGACCGGGCCAGAUGGAG [tbqqmullin] | 235 nM |
